Source: patent US9555076B2, “Neuregulin based methods and compositions for treating cardiovascular diseases” (Zensun (Shanghai) Science & Technology, Co., Ltd., priority 2002, dated 2017)

Legend:
[1] = system: congestive heart failure caused by inferior vena cava constriction in dog; test: Hemodynamic index by catheterization, TIVCC dog; assay type: in vivo, crossbred dog; conditions: for L(−dp/dt) / L(+dp/dt): left ventricle
Method: 7F trifid balloon floating catheter was inserted into the right jugular vein, right auricular pressure, right ventricular pressure, pulmonary pressure and pulmonary wedge pressure were recorded.
6F trifid balloon floating catheter was again inserted into left carotid artery, aorta pressure and left ventricle pressure were recorded with physiology recorder with the following major index: LVPmax, LVPmin, +dp/dt, and −dp/dt.

[2] = Acute toxicity experiment, intravenous injection; assay type: in vivo
[3] = system: toxic myocarditis caused by Adriamycin in rat; test: Serum troponin T (cTnT) level, Adriamycin rat model; assay type: in vivo, SD rat
[4] = system: heart failure in rat caused by ligation of coronary artery; test: Capillary counting in myocardial fibrotic area (HE, image analysis); assay type: in vivo, SD rat
Description: After fixed with 10% formaldehyde, myocardium of the rat was longitudinally cut with equal distance into 3 slices, conventionally embedded with paraffin, section made, HE stained, image analysis for area of fibrotic region of the heart, counted the number of capillary in the fibrotic lesion (counting unit: piece/mm^2); Nagar-Oslen stained, studied the size of ischemic hypoxic region in the myocardium.

Rhesus = test: Serum antibody detection (ELISA) in long-term toxicity study; assay type: in vivo; conditions: 7.5, 15, 75 μg/kg/d iv, 1, 2, 3-week and end of convalescent period
Method: Sealing: Wash the plate 5 times, prepare 5% evaporated skimmed milk with cleaning solution.
Dilute the scheduled for testing serum; dilute the sample with sample dilution solution, dilute gradient is 1:100.
Add sample: Wash the sealed enzyme labeled plate for 3 times, add scheduled for testing serum, 100 μl/hole, 37° C. for 1 hour.
Add enzyme labeled antibody: Wash the plate 5 times, add 1:1000 diluted HRP labeled rat anti-monkey immunoglobulin, […], 37° C. for 1 hour.
Substrate: Wash the plate 5 times, add newly prepared substrate operating fluid, 100 μl/hole, 37° C. for 10 minutes.
Ending: add 2N H2SO4, 50 μl/hole to end the reaction.
Odd value detection: Positive result was defined as OD value of testing sample was 2.1 time greater than that of the negative control (serum was 1:100 diluted).

[5] = system: phosphorylation of ErbB2 protein, MCF-7 cells; test: In vitro determination of NRG-1 activity (ELISA test for kinase receptor activation); assay type: cell-based, human
Description: Quantity of standard product that can induce 50% maximal reaction is defined as an activity unit (1U). Accordingly, product from different pharmaceuticals and of different batch number can be quantitated with uniform criteria.
HER2/neu gene encodes a trans-membrane protein p185, which is a tyrosine protein kinase. Binding of Neuregulin-1 with ErbB3 or ErbB4 induces heterodimer ErbB3-ErbB2 and ErbB4-ErbB2 formation and activates HER2 encoded tyrosine protein kinase, mediating the transmission of functioning signal of Neuregulin-1. Based on the fact that binding of Neuregulin-1 with its receptors triggers phosphorylation of ErbB2 protein, we establish a rapid, sensitive and high flux method for in vitro quantitatively determining biological activity of Recombinant Neuregulin-1.
150 mM NaCl+50 mM Hepes+1% Triton-X 100+2 mM (sodium orthovanadate)+0.01% (thimerosol). […]
Wash the plate 5 times, dilute HRP enzyme linked mouse anti-phosphorylated tyrosine protein antibody with 1:500 lotion (determined by the product using guide and the using time), add 100 μl into each hole of the plate. […]
Colorimetric analysis on the ELISA reader, determine wave length of 450 nm, reference wave length of 655, record the results. […]

B1: rhNRG-1 β: Recombinant human neuregulin fragment of 61 amino acid (SEQ ID NO:4), 3 disulfide bonds, expressed in E. coli (protein, listed as Homo sapiens)
chain: SHLVKCAEKEKTFCVNGGECFMVKDLSNPSRYLCKCPNEFTGDRCQNYVMASFYKAEELYQ
modifications: disulfide (positions not given here)
LVPmax ([1]; 1 μg/kg iv daily 5 days): 102.12 ± 12.42 mmHg
LVPmin ([1]; 1 μg/kg iv daily 5 days): 0.59 ± 3.05 mmHg
LVPmax ([1]; 3 μg/kg iv daily 5 days): 114.68 ± 17.12 mmHg
LVPmin ([1]; 3 μg/kg iv daily 5 days): −1.12 ± 1.34 mmHg
LVPmax ([1]; 10 μg/kg iv daily 5 days): 122.87 ± 17.37 mmHg
LVPmin ([1]; 10 μg/kg iv daily 5 days): −0.69 ± 1.05 mmHg
effect on the right ventricle ([1]; 1, 3 and 10 μg/kg iv daily 5 days): not apparent
L(−dp/dt) ([1]; 1 μg/kg iv daily 5 days): −2933 ± 613.44 mmHg/s
L(+dp/dt) ([1]; 3 μg/kg iv daily 5 days): 5000.45 ± 1535.88 mmHg/s
L(−dp/dt) ([1]; 3 μg/kg iv daily 5 days): −3249.52 ± 973.32 mmHg/s
L(+dp/dt) ([1]; 10 μg/kg iv daily 5 days): 5104.88 ± 1332.05 mmHg/s
L(−dp/dt) ([1]; 10 μg/kg iv daily 5 days): −3658.34 ± 1390.97 mmHg/s
MTD of acute toxicity experiment [2]: 35 mg/kg
cTnI ([3]; 10 μg/kg iv qd × 10 d, (II)): 8.342 ± 13.537 ng/mL
cTnI ([3]; 20 μg/kg iv qd × 10 d, (II)): 1.677 ± 0.589 ng/mL
cTnI ([3]; 40 μg/kg iv qd × 10, (II)): 0.874 ± 0.108 ng/mL
Capillary counting (I) ([4]; 5 μg/kg iv qd x 10): 9.35 ± 4.2 piece/mm^2
Capillary counting (II) ([4]; 5 μg/kg iv qd x 10): 15.0 ± 6.9 piece/mm^2
Capillary counting (I) ([4]; 10 μg/kg iv qd x 10): 8.99 ± 3.3 piece/mm^2
Capillary counting (II) ([4]; 10 μg/kg iv qd x 10): 19.6 ± 8.5 piece/mm^2
Capillary counting (I) ([4]; 20 μg/kg iv qd x 10): 10.12 ± 3.0 piece/mm^2
Capillary counting (II) ([4]; 20 μg/kg iv qd x 10): 24.6 ± 9.5 piece/mm^2
antibody testing (Rhesus): negative results
specific activity ([5]; batch number 200210024): 1.12×10^4 U/mg
specific activity ([5]; purified recombinant neuregulin from engineered strain): more than 5×10^3 EU/mg
